Laboratory results from paper PMC2808332, “Expanding the Substantial Interactome of NEMO Using Protein Microarrays” (PLoS ONE, 2010).

These binders were tested against T1, NEMO (NF-κB essential modulator), tag-free, biotinylated (human, UniProt Q9Y6K9 1-419, biotin (in vitro biotinylation kit, biotin:NEMO molar ratio 9:1)) (assay: peptide or protein array; Invitrogen Protoarray v4.0, about 8,400 human proteins spotted on nitrocellulose-coated glass slides; 10 µg biotinylated tag-free NEMO in 120 µl probing buffer (PBS, 0.5 mM DTT, 5 mM MgCl2, 5% glycerol, 0.05% Triton X-100), 4°C, 1.5 h; bound NEMO detected with labelled streptavidin; hits Z-score > 3, hits of the biotin-GST control array subtracted). Settings: both partners purified.
T1 construct: NEMO, NF-κB essential modulator, human, 48 kDa; also called biotinylated NEMO; biotin-NEMO; source: E. coli BL21(DE3), purified (glutathione sepharose), GST removed with thrombin, biotinylated in vitro

Binder | binding result
Calbindin D28K (natural protein, human, UniProt P05937-1 1-261, looked up, also called CALB1; source: insect cell/baculovirus, purified, spotted (Invitrogen Protoarray v4.0)) MAESHLQSSLITASQFFEIWLHFDADGSGYLEGKELQNLIQELQQARKKAGLELSPEMKTFVDQYGQRDDGKIGIVELAHVLPTEENFLLLFRCQQLKSCEEFMKTWRKYDTDHSGFIETEELKNFLKDLLEKANKTVDDTKLAEYTDLMLKLFDSNNDGKLELTEMARLLPVQENFLLKFQGIKMCGKEFNKAFELYDQDGNGYIDENELDALLKDLCEKNKQDLDINNITTYKKNIMALSDGGKLYRTDLALILCAGDN | binds
Centaurin, alpha 2 (natural protein, human, UniProt Q9NPF8 1-381, looked up, Centaurin, alpha 2, human; also called CENTA2; source: insect cell/baculovirus, purified, spotted (Invitrogen Protoarray v4.0)) MGDRERNKKRLLELLRAPDTGNAHCADCGAADPDWASYKLGIFICLNCCGVHRNFPDISRVKSVRLDFWDDSIVEFMIHNGNLRVKAKFEARVPAFYYIPQANDCLVLKEQWIRAKYERREFMADGETISLPGNREGFLWKRGRDNSQFLRRKFVLLAREGLLKYFTKEQGKSPKAVISIKDLNATFQTEKIGHPHGLQITYRRDGHTRNLFVYHESGKEIVDWFNALRAARLQYLKMAFPELPESELVPFLTRNYLKQGFMEKTGPKQKEPFKKRWFALDCHERRLLYYKNPLDAFEQGQVFLGNKEQGYEAYEDLPKGIRGNRWKAGLTIVTPERRFVLTCPSEKEQQEWLESLRGVLSSPLTPLNRLTASTESGRSSR | binds
Acyl-Coenzyme A binding domain containing 6 (natural protein, human, UniProt Q9BR61 1-282, looked up, also called ACBD6; source: insect cell/baculovirus, purified, spotted (Invitrogen Protoarray v4.0)) MASSFLPAGAITGDSGGELSSGDDSGEVEFPHSPEIEETSCLAELFEKAAAHLQGLIQVASREQLLYLYARYKQVKVGNCNTPKPSFFDFEGKQKWEAWKALGDSSPSQAMQEYIAVVKKLDPGWNPQIPEKKGKEANTGFGGPVISSLYHEETIREEDKNIFDYCRENNIDHITKAIKSKNVDVNVKDEEGRALLHWACDRGHKELVTVLLQHRADINCQDNEGQTALHYASACEFLDIVELLLQSGADPTLRDQDGCLPEEVTGCKTVSLVLQRHTTGKA | binds
Pleckstrin homology domain containing, family J member 1 (natural protein, human, UniProt Q9NW61 1-149, looked up, Pleckstrin homology domain containing, family J member 1, human; also called PLEKHJ1; source: insect cell/baculovirus, purified, spotted (Invitrogen Protoarray v4.0)) MRYNEKELQALSRQPAEMAAELGMRGPKKGSVLKRRLVKLVVNFLFYFRTDEAEPVGALLLERCRVVREEPGTFSISFIEDPERKYHFECSSEEQCQEWMEALRRASYEFMRRSLIFYRNEIRKVTGKDPLEQFGISEEARFQLSGLQA | binds
Odontogenic, ameloblast associated (natural protein, human, UniProt A1E959 16-279, looked up, Odontogenic, ameloblast associated, human; also called ODAM; source: insect cell/baculovirus, purified, spotted (Invitrogen Protoarray v4.0)) APLIPQRLMSASNSNELLLNLNNGQLLPLQLQGPLNSWIPPFSGILQQQQQAQIPGLSQFSLSALDQFAGLLPNQIPLTGEASFAQGAQAGQVDPLQLQTPPQTQPGPSHVMPYVFSFKMPQEQGQMFQYYPVYMVLPWEQPQQTVPRSPQQTRQQQYEEQIPFYAQFGYIPQLAEPAISGGQQQLAFDPQLGTAPEIAVMSTGEEIPYLQKEAINFRHDSAGVFMPSTSPKPSTTNVFTSAVDQTITPELPEEKDKTDSLREP | binds
Proteasome (prosome, macropain) subunit, alpha type, 3 (natural protein, human, UniProt P25788-1 1-255, looked up, Proteasome (prosome, macropain) subunit, alpha type, 3, human; also called PSMA3; source: insect cell/baculovirus, purified, spotted (Invitrogen Protoarray v4.0)) MSSIGTGYDLSASTFSPDGRVFQVEYAMKAVENSSTAIGIRCKDGVVFGVEKLVLSKLYEEGSNKRLFNVDRHVGMAVAGLLADARSLADIAREEASNFRSNFGYNIPLKHLADRVAMYVHAYTLYSAVRPFGCSFMLGSYSVNDGAQLYMIDPSGVSYGYWGCAIGKARQAAKTEIEKLQMKEMTCRDIVKEVAKIIYIVHDEVKDKAFELELSWVGELTNGRHEIVPKDIREEAEKYAKESLKEEDESDDDNM | binds
CUE domain containing 1 (natural protein, human, UniProt Q9NWM3 1-386, looked up, CUE domain containing 1, human; also called CUEDC1; source: insect cell/baculovirus, purified, spotted (Invitrogen Protoarray v4.0)) MTSLFRRSSSGSGGGGTAGARGGGGGTAAPQELNNSRPARQVRRLEFNQAMDDFKTMFPNMDYDIIECVLRANSGAVDATIDQLLQMNLEGGGSSGGVYEDSSDSEDSIPPEILERTLEPDSSDEEPPPVYSPPAYHMHVFDRPYPLAPPTPPPRIDALGSGAPTSQRRYRNWNPPLLGNLPDDFLRILPQQLDSIQGNAGGPKPGSGEGCPPAMAGPGPGDQESRWKQYLEDERIALFLQNEEFMKELQRNRDFLLALERDRLKYESQKSKSSSVAVGNDFGFSSPVPGTGDANPAVSEDALFRDKLKHMGKSTRRKLFELARAFSEKTKMRKSKRKHLLKHQSLGAAASTANLLDDVEGHACDEDFRGRRQEAPKVEEGLREGQ | binds
G protein, γ-transducing activity polypeptide 1 (natural protein, human, UniProt P63211 1-74, looked up, G protein, γ-transducing activity polypeptide 1, human; also called GNGT1; source: insect cell/baculovirus, purified, spotted (Invitrogen Protoarray v4.0)) MPVINIEDLTEKDKLKMEVDQLKKEVTLERMLVSKCCEEVRDYVEERSGEDPLVKGIPEDKNPFKELKGGCVIS | binds
Myosin light chain 5, regulatory (natural protein, human, UniProt Q02045-1 1-173, looked up, Myosin light chain 5, regulatory, human; also called MYL5; source: insect cell/baculovirus, purified, spotted (Invitrogen Protoarray v4.0)) MASRKTKKKEGGALRAQRASSNVFSNFEQTQIQEFKEAFTLMDQNRDGFIDKEDLKDTYASLGKTNVKDDELDAMLKEASGPINFTMFLNLFGEKLSGTDAEETILNAFKMLDPDGKGKINKEYIKRLLMSQADKMTAEEVDQMFQFASIDVAGNLDYKALSYVITHGEEKEE | binds
Leucine zipper and CTNNBIP1 domain containing (natural protein, human, UniProt Q8WZA0-1 1-190, looked up, Leucine zipper and CTNNBIP1 domain containing, human; also called LZIC; source: insect cell/baculovirus, purified, spotted (Invitrogen Protoarray v4.0)) MASRGKTETSKLKQNLEEQLDRLMQQLQDLEECREELDTDEYEETKKETLEQLSEFNDSLKKIMSGNMTLVDELSGMQLAIQAAISQAFKTPEVIRLFAKKQPGQLRTRLAEMDRDLMVGKLERDLYTQQKVEILTALRKLGEKLTADDEAFLSANAGAILSQFEKVSTDLGSGDKILALASFEVEKTKK | binds
Centrin EF-hand protein 3 (natural protein, human, UniProt O15182 1-167, looked up, Centrin EF-hand protein 3, human; also called CETN3; source: insect cell/baculovirus, purified, spotted (Invitrogen Protoarray v4.0)) MSLALRSELVVDKTKRKKRRELSEEQKQEIKDAFELFDTDKDEAIDYHELKVAMRALGFDVKKADVLKILKDYDREATGKITFEDFNEVVTDWILERDPHEEILKAFKLFDDDDSGKISLRNLRRVARELGENMSDEELRAMIEEFDKDGDGEINQEEFIAIMTGDI | binds
PIM2 (printed gene product: Pediatric index of mortality 2) (natural protein, source: insect cell/baculovirus, purified, spotted (Invitrogen Protoarray v4.0)) not shown | binds
Cyclic AMP phosphoprotein, 19 kDa (natural protein, human, UniProt P56211-1 1-112, looked up, Cyclic AMP phosphoprotein, 19 kDa, human; also called ARPP-19; source: insect cell/baculovirus, purified, spotted (Invitrogen Protoarray v4.0)) MSAEVPEAASAEEQKEMEDKVTSPEKAEEAKLKARYPHLGQKPGGSDFLRKRLQKGQKYFDSGDYNMAKAKMKNKQLPTAAPDKTEVTGDHIPTPQDLPQRKPSLVASKLAG | binds
NOTCH-regulated ankyrin repeat protein (natural protein, human, UniProt Q7Z6K4 1-114, looked up, NOTCH-regulated ankyrin repeat protein, human; also called NRARP; source: insect cell/baculovirus, purified, spotted (Invitrogen Protoarray v4.0)) MSQAELSTCSAPQTQRIFQEAVRKGNTQELQSLLQNMTNCEFNVNSFGPEGQTALHQSVIDGNLELVKLLVKFGADIRLANRDGWSALHIAAFGGHQDIVLYLITKAKYAASGR | binds
Prefoldin 5, transcript variant 1 (natural protein, human, UniProt Q99471-1 1-154, looked up, Prefoldin 5, human; also called PFDN5; source: insect cell/baculovirus, purified, spotted (Invitrogen Protoarray v4.0)) MAQSINITELNLPQLEMLKNQLDQEVEFLSTSIAQLKVVQTKYVEAKDCLNVLNKSNEGKELLVPLTSSMYVPGKLHDVEHVLIDVGTGYYVEKTAEDAKDFFKRKIDFLTKQMEKIQPALQEKHAMKQAVMEMMSQKIQQLTALGAAQATAKA | binds
AMME chromosomal region gene 1-like (natural protein, human, UniProt Q6DCA0 1-310, looked up, AMME chromosomal region gene 1-like, human; also called AMMECR1L; source: insect cell/baculovirus, purified, spotted (Invitrogen Protoarray v4.0)) MGKRRCVPPLEPKLAAGCCGVKKPKLSGSGTHSHGNQSTTVPGSSSGPLQNHQHVDSSSGRENVSDLTLGPGNSPITRMNPASGALSPLPRPNGTANTTKNLVVTAEMCCYCFDVLYCHLYGFPQPRLPRFTNDPYPLFVTWKTGRDKRLRGCIGTFSAMNLHSGLREYTLTSALKDSRFPPLTREELPKLFCSVSLLTNFEDASDYLDWEVGVHGIRIEFINEKGVKRTATYLPEVAKEQDWDQIQTIDSLLRKGGFKAPITSEFRKTIKLTRYRSEKVTISYAEYIASRQHCFQNGTLHAPPLYNHYS | binds
Chromosome 9 open reading frame 32 (natural protein, human, UniProt Q9BV86 1-223, looked up, Chromosome 9 open reading frame 32, human; also called C9ORF32; source: insect cell/baculovirus, purified, spotted (Invitrogen Protoarray v4.0)) MTSEVIEDEKQFYSKAKTYWKQIPPTVDGMLGGYGHISSIDINSSRKFLQRFLREGPNKTGTSCALDCGAGIGRITKRLLLPLFREVDMVDITEDFLVQAKTYLGEEGKRVRNYFCCGLQDFTPEPDSYDVIWIQWVIGHLTDQHLAEFLRRCKGSLRPNGIIVIKDNMAQEGVILDDVDSSVCRDLDVVRRIICSAGLSLLAEERQENLPDEIYHVYSFALR | binds
TBC1 domain family, member 7 (natural protein, human, UniProt Q9P0N9-1 1-293, looked up, TBC1 domain family, member 7, human; also called TBC1D7; source: insect cell/baculovirus, purified, spotted (Invitrogen Protoarray v4.0)) MTEDSQRNFRSVYYEKVGFRGVEEKKSLEILLKDDRLDTEKLCTFSQRFPLPSMYRALVWKVLLGILPPHHESHAKVMMYRKEQYLDVLHALKVVRFVSDATPQAEVYLRMYQLESGKLPRSPSFPLEPDDEVFLAIAKAMEEMVEDSVDCYWITRRFVNQLNTKYRDSLPQLPKAFEQYLNLEDGRLLTHLRMCSAAPKLPYDLWFKRCFAGCLPESSLQRVWDKVVSGSCKILVFVAVEILLTFKIKVMALNSAEKITKFLENIPQDSSDAIVSKAIDLWHKHCGTPVHSS | binds
Leupaxin (natural protein, human, UniProt O60711-1 1-386, looked up, Leupaxin, human; also called LPXN; source: insect cell/baculovirus, purified, spotted (Invitrogen Protoarray v4.0)) MEELDALLEELERSTLQDSDEYSNPAPLPLDQHSRKETNLDETSEILSIQDNTSPLPAQLVYTTNIQELNVYSEAQEPKESPPPSKTSAAAQLDELMAHLTEMQAKVAVRADAGKKHLPDKQDHKASLDSMLGGLEQELQDLGIATVPKGHCASCQKPIAGKVIHALGQSWHPEHFVCTHCKEEIGSSPFFERSGLAYCPNDYHQLFSPRCAYCAAPILDKVLTAMNQTWHPEHFFCSHCGEVFGAEGFHEKDKKPYCRKDFLAMFSPKCGGCNRPVLENYLSAMDTVWHPECFVCGDCFTSFSTGSFFELDGRPFCELHYHHRRGTLCHGCGQPITGRCISAMGYKFHPEHFVCAFCLTQLSKGIFREQNDKTYCQPCFNKLFPL | binds
Ring finger protein 7 (sensitive to apoptosis gene, SAG) (natural protein, human, UniProt Q9UBF6-1 1-113, looked up, Ring finger protein 7 (sensitive to apoptosis gene, SAG), human; also called RNF7; source: insect cell/baculovirus, purified, spotted (Invitrogen Protoarray v4.0)) MADVEDGEETCALASHSGSSGSKSGGDKMFSLKKWNAVAMWSWDVECDTCAICRVQVMDACLRCQAENKQEDCVVVWGECNHSFHNCCMSLWVKQNNRCPLCQQDWVVQRIGK | binds
Arginine vasopressin-induced 1 (natural protein, human, UniProt Q5T686 1-147, looked up, Arginine vasopressin-induced 1, human; also called AVPI1; source: insect cell/baculovirus, purified, spotted (Invitrogen Protoarray v4.0)) MGTPASVVSEPPPWQAPIEARGRKQASANIFQDAELLQIQALFQRSGDQLAEERAQIIWECAGDHRVAEALKRLRRKRPPRQKPLGHSLHHCSRLRILEPHSALANPQSATETASSEQYLHSRKKSARIRRNWRKSGPTSYLHQIRH | binds
